# In patent US6348573B1, “Compositions and methods for identifying apoptosis signaling pathway inhibitors and activators” (The Regents of the University of Michigan, priority 1998, dated 2002):
# T1: caspase-3 (Homo sapiens, UniProt P42574)
# T1 construct: expressed in transfected cells; host or cells: human 293T cells
# T1 sequence (P42574 29-277): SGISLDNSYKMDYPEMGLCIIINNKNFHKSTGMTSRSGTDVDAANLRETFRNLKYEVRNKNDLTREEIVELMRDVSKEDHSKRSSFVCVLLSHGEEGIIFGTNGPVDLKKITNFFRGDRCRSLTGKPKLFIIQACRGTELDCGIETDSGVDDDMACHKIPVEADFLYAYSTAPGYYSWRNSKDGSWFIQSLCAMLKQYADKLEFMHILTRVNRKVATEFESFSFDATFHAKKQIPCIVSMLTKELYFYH
# T2: caspase-9 (Homo sapiens, UniProt P55211)
# T2 construct: expressed in transfected cells; host or cells: human 293T cells
# T2 sequence (P55211 1-416): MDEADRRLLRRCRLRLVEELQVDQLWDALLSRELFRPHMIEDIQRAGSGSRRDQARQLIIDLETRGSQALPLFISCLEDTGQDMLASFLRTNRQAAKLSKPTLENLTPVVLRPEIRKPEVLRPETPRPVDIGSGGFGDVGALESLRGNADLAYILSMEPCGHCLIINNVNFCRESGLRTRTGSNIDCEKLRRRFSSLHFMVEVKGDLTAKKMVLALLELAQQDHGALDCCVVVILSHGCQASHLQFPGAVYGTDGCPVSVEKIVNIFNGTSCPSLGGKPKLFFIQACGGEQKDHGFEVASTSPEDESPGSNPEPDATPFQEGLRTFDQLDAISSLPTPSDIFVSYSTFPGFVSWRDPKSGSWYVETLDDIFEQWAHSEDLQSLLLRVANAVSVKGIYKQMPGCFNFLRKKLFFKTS
# T3: caspase-3, epitope-tagged (UniProt P42574 1-277)
# T3 construct: also called pcDNA3-caspase-3-Flag; not shown: position and
# T3 sequence (looked up): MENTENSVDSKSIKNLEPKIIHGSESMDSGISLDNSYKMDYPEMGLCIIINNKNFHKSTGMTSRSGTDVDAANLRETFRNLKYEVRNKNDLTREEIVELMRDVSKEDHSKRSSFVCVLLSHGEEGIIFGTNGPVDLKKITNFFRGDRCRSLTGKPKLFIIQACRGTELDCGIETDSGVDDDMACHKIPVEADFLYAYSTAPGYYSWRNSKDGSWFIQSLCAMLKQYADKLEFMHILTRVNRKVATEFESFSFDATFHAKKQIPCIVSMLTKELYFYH
# T4: caspase-9, Flag-tagged (pcDNA3-caspase-9-Flag) (UniProt P55211 1-416)
# T4 construct: not shown: Flag tag
# T4 sequence (looked up): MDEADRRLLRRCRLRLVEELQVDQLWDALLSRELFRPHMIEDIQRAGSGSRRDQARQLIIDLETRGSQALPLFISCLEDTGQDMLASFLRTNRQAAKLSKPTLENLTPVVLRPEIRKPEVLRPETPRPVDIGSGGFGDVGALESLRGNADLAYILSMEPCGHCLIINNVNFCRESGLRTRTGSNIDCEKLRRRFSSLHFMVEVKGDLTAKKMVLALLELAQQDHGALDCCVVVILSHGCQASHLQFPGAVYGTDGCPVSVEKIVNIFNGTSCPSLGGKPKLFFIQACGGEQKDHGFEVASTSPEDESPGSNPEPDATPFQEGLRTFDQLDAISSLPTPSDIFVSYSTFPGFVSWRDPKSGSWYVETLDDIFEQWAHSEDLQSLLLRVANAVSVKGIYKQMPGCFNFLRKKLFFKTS
# T5: FADD (Fas-associated death domain protein), expressed in 293T cells (human, UniProt Q13158 1-208)
# T5 construct: also called MORT-1; pcDNA3-FADD-AU1
# T5 sequence (looked up): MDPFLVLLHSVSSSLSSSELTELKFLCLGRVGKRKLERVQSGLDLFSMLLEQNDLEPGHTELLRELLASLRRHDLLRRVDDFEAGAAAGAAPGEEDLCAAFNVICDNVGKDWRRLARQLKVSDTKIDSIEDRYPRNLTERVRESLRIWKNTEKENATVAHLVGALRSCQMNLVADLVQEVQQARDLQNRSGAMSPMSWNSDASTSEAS
# How the values were obtained:
# 293T cells = test: β-galactosidase apoptosis assay, ARC co-transfection; format: cell-based, human
# Experimental: Briefly, 2 μg of pcDNA3 or pcDNA3-ARC-Flag or -HA was co-transfected with 3 μg of pcDNA3 or caspase expression plasmids. Total amount of transfected plasmid DNA was always 5 μg. 293T cells were harvested after 22 hr and lysed with 0.2% NP-40 isotonic lysis buffer [Z. N. Oltvai et al., Cell 74:609-619 (1993)]. For immunoprecipitation, […] of soluble protein was incubated with 10 μg/ml of polyclonal anti-Flag, monoclonal anti-AU1 or polyclonal anti-HA antibody for 2 hr at 4° C. and tagged proteins were immunoprecipitated with Protein A-Sepharose 4B (Zymed Laboratories Inc., San Francisco, Calif.). Immunoprecipitates were subjected to 12% SDS-polyacrylamide electrophoresis and immunoblotted with anti-Flag, anti-AU1 or anti-HA antibodies. β-galactosidase apoptosis assay and Caspase-8 enzymatic assay: 5×10^5 293T cells were transfected with 0.3 μg of pcDNA3-β-gal plus each expression plasmid in triplicate. Cells were fixed 16 hrs after transfection, stained for β-galactosidase and assayed for morphological features of apoptosis [M. Muira et al., Cell 75:653-660 (1993)]. Statistical significance was determined by one-way ANOVA followed by Student-Neuman-Keuls post-doc comparisons. For caspase-8 enzymatic assay, 1.5×10^6 human 293T cells were co-transfected with pcDNA3, pcDNA3-ARC-Flag, pcDNA3-caspase-8 and pcDNA3-caspase-8-mt by a calcium phosphate method. Total amount of transfected plasmid DNA was always 2.5 μg. 293T cells were harvested 18hr after transfection and lysed with 0.2% NP-40 isotonic lysis buffer. Tagged proteins were immunoprecipitated and caspase activity was measured as described [N. Inohara et al., Proc. Natl. Acad. Sci. USA 94:10717-10722 (1997)].
# caspase-3 = target: T1, caspase-3; test: Co-immunoprecipitation of ARC with caspase-3; format: binding; settings: 293T lysates
# Experimental: (§1) Briefly, 2 μg of pcDNA3 or pcDNA3-ARC-Flag or -HA was co-transfected with 3 μg of pcDNA3 or caspase expression plasmids. Total amount of transfected plasmid DNA was always 5 μg. 293T cells were harvested after 22 hr and lysed with 0.2% NP-40 isotonic lysis buffer [Z. N. Oltvai et al., Cell 74:609-619 (1993)]. For immunoprecipitation, […] of soluble protein was incubated with 10 μg/ml of polyclonal anti-Flag, monoclonal anti-AU1 or polyclonal anti-HA antibody for 2 hr at 4° C. and tagged proteins were immunoprecipitated with Protein A-Sepharose 4B (Zymed Laboratories Inc., San Francisco, Calif.). Immunoprecipitates were subjected to 12% SDS-polyacrylamide electrophoresis and immunoblotted with anti-Flag, anti-AU1 or anti-HA antibodies.
# caspase-9 = target: T2, caspase-9; test: Co-immunoprecipitation of ARC with caspase-9; format: binding; settings: 293T lysates
# Experimental: as §1
# [1] = target: T3, caspase-3, epitope-tagged; test: co-immunoprecipitation from co-transfected 293T cells, immunoblot
# [2] = target: T4, caspase-9, Flag-tagged …; test: as above
# [3] = target: T5, FADD (Fas-associated death domain …); test: co-immunoprecipitation from co-transfected 293T cells (data not shown)
# Bcl-XL = Bcl-XL (UniProt Q07817 1-233); test: as above
# c-IAP-2 = c-IAP-2 (UniProt Q13489 1-604); test: as above
# Sequence of c-IAP-2 (Q13489 whole entry): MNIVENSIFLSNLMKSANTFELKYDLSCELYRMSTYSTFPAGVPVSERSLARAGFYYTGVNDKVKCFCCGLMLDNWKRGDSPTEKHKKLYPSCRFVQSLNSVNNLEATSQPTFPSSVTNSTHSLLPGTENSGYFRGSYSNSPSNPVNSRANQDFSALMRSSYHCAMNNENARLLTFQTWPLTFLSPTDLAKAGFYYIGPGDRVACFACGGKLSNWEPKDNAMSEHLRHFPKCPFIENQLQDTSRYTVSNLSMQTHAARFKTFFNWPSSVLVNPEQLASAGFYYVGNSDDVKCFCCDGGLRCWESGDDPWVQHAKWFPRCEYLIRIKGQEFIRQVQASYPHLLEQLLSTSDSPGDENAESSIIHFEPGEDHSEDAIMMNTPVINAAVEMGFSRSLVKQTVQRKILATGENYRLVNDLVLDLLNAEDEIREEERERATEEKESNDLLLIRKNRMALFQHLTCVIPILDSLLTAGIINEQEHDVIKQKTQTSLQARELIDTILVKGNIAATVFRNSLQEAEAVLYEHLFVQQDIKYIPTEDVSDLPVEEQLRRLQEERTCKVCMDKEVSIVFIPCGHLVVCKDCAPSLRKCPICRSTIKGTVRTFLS
# Sequence of Bcl-XL (Q07817 whole entry): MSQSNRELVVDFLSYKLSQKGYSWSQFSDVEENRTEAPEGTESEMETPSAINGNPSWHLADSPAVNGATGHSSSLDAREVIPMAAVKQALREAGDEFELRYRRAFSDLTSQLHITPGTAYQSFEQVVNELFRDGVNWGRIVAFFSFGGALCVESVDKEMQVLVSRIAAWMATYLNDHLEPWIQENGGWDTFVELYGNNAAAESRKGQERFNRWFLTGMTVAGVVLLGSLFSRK
molecule,measurement,setting,value
"human ARC (Apoptosis Repressor with CARD domain), C-terminally Flag- or HA-tagged (other, Entire open reading frame expressed in 293T cells; The two tagged constructs are merged here; also called ARC-Flag; ARC-HA; not shown: C-terminal FLAG or HA tag) MGNAQERPSETIDRERKRLVETLQADSGLLLDALLARGVLTGPEYEALDALPDAERRVRRLLLLVQGKGEAACQELLRCAQRTAGAPDPAWDWQHVGPGYRDRSYDPPCPGHWTPEAPGSGTTCPGLPRASDPDEAGGPEGSEAVQSGTPEEPEPELEAEASKEAEPEPEPEPELEPEAEAEPEPELEPEPDPEPEPDFEERDESEDS",induction of apoptosis by expression of ARC,293T cells; ARC alone,did not induce apoptosis
same,apoptosis induced by C. elegans CED-3,293T cells; co-expression with ARC,inhibited
same,apoptosis induced by CLARP,293T cells; co-expression with ARC,inhibited
same,apoptosis induced by FADD,293T cells; co-expression with ARC,inhibited
same,apoptosis induced by TRADD,293T cells; co-expression with ARC,inhibited
same,apoptosis induced by caspase-8,293T cells; co-expression with ARC,inhibited caspase-8-induced killing in a dose-dependent manner
same,apoptosis induced by stimulation of CD95/Fas receptor,293T cells; co-expression with ARC,partially but significantly inhibited
same,apoptosis induced by stimulation of TNF-R1 receptor,293T cells; co-expression with ARC,partially but significantly inhibited
same,apoptosis induced by stimulation of TRAMP/DR3 receptor,293T cells; co-expression with ARC,partially but significantly inhibited
same,apoptosis mediated by caspase-9,293T cells; co-expression with ARC,not
same,co-immunoprecipitation with caspase-3,caspase-3,not
same,co-immunoprecipitation with caspase-9,caspase-9,not
same,binding result,[1],no binding
same,binding result,[2],no binding
same,binding result,[3],no binding
same,binding result,Bcl-XL,no binding
same,binding result,c-IAP-2,no binding
